Assay: yeast display, Sf9 membrane polyspecificity reagent, FACS + sequencing; frameworks hold sequencing errors
Summary of the method: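 Polyreactivity labels are assigned by the sorting gate from which each nanobody was recovered. The gates were low and high (top ~1%), set on anti-HA fluorescence for expression and streptavidin fluorescence for reagent binding. Before sorting, galactose-induced (36–48 hours) yeast display cells were stained for 1 hour at 4 °C with 10% biotinylated, detergent-solubilized Sf9 membrane reagent.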

Sequence	polyreactivity (PSR sort gate)
QVQLVESGGGLVQAGGSLRLSCAASGRIVRNAMGWYRQAPGKERELVAAISRSGGSTYDADSVKGRFTISRDNAKNTVYLQMNSLKPEDTAVYYCAKRSTSQSLQVEYWGQGTQVTVSS	high polyreactivity
QVQLVESGGGLVQAGGSLRLSCAASGRIVTSNAMGWYRQAPGKERELVAVISRRGGSTYYADYVKGRFTITRDNAKNTVYLQMNSVKPEDTAVYYCARRPYSYTRYEYWGQGTQVTVSS	low polyreactivity
QVQLVESGGGLVQAGGSLRLSCAASGRIVWGYAMGWYTPAPGKERDLVATITRGGSTNYADSVKGRFTISRDNAKNTVYLQMNSLKPEDTAVYYCARDWGKSEYDYWGQGTQVTVSS	high polyreactivity
QVQLVESGGGLVQAGGSLRLSCAASGRIVYRYAMGWYRQAPGKERELVAAISSGGSTYYADSVKGRFTISRDNAKNTVYLQMNSLKPEDTAVYYCAATWGRGTYYLYYYWGQGTQVTGSS	high polyreactivity
QVQLVESGGGLVQAGGSLRLSCAASGRIWSRYAMGWYRQAPGKERELVAAITQSGTSTYYADSVKGRFTFSRDNAKNTVYLQMNSLKPEDTAVYYCNAYRQYRYDYWGQGTQVTVSS	low polyreactivity
QVQLVESGGGLVQAGGSLRLSCAASGRIYARNAMGWYIQAPGKERELVAAITRGGSTYYADSVKGRFTISRDNAKNTVYLQMNSLKPEDTAVYYCAASYRGSTYKYYYWGQGTQVTVSS	high polyreactivity
QVQLVESGGGLVQAGGSLRLSCAASGRIYGINVMGRYRQAPGKEMELVAAISYRTGSTYYADSVKGRFTISRDNAKNTVYLQMNSLKPEDTEVYYCAVRRPSSYSYGEDYWGQGTQVTVSS	high polyreactivity
QVQLVESGGGLVQAGGSLRLSCAASGRIYKSYAMGWYRQAPGKERELVAAIRSGGSTYYADSVKGRFTISRDNAKNTVYLQMKSLKPEDTAVYYCAADRYSYGSNGYPRFEYYYWGQGTQVTVSS	high polyreactivity
QVQLVESGGGLVQAGGSLRLSCAASGRIYLTNAMGWYRQAPGKERELVAAITSGGSTYYADSVKGRFTISRDNAKNTVYLQMNSLKPEDTAVYYCNADTDRYWPYEYDYWGQGTQVTVSS	low polyreactivity
QVQLVESGGGLVQAGGSLRLSCAASGRIYPKNTMGWYRQERGKERELVAAINWNGGRTYYADSEKGRFTISRDNAKNTVYLPMNSLKPEYTAVYYCAKDGYWDFDYWGQGTQVTVSS	low polyreactivity
QVQLVESGGGLVQAGGSLRLSCAASGRIYPTYTMGWYRQAPGKERELVAAINRGGGSTYYADSVKGRFTISRDTAKNTVYLQLICLKPEDTAVYYCTARTYYRSYGYDYWGQGTQVTVSS	low polyreactivity
QVQLVESGGGLVQAGGSLRLSCAASGRIYRINALGWYRQAPGKERELVATITSGGGSTYADSVKGRFTISRDNAKNTVYLQMNSLKPEDTAVYFCAARSRIGRYTYDYWGQGTQVTVSS	high polyreactivity
QVQLVESGGGLVQAGGSLRLSCAASGRIYRRNTMGWYRQAPGKERELVAAITSSGGSTYADSVKGRFTISRDNAKNTVYLQMISLKPEDSAVYYCATYVAYHRGYRTYDHWGQGTHVTVSS	low polyreactivity
QVQLVESGGGLVQAGGSLRLSCAASGRIYSVYGLGWYRQAPGKDRELVAAISSSAGSTNYADSVKGRFTISRDNAKNTVYLQMNSLKPEDTAVYYCAAYYRRVVYYPTAYYIRKYDYWGQGTQVTVSS	high polyreactivity
QVQLVESGGGLVQAGGSLRLSCAASGRIYSYYAMGWYRQAPGKERELVATINSGGSTNYADSVNGRFTISRDNAKNTVYLQMKSLKPEDTAVYYCGALRDRDITVYYDTGRMYYWGQGTQVNVSS	low polyreactivity
QVQLVESGGGLVQAGGSLRLSCAASGRIYWNTMGWYRPAPGKERELVASISTGGGRTYYADSVKGRFTISRDNAKNTVYLQMNSLKPEDTAVYYCAARRGAGYSRFNYWGQGTQVTVSS	high polyreactivity

Sequence	polyreactivity (PSR sort gate)
QVQLVESGGGLVQAGGSLRLSCAASGRIYWNTMGWYRQAPGKERQLVASISTGGGRTYYADSVKGRFTISRDNAKNTVYLQMNSLKPEDTAVYYCAARRGAGYSRFNYWGQGTQVTVSS	high polyreactivity
QVQLVESGGGLVQAGGSLRLSCAASGRIYYVYGMGWYRQAPGKERELVAAITRSGGSTYYADSVKGRFTISRDNAKNTVYLQMNSLKPEDTAVYYCAASVPYYTGYYYNAYEYWGQGTQVTVSS	high polyreactivity
QVQLVESGGGLVQAGGSLRLSCAASGRIYYWYDMGWYRQAPGKERELVAAISWSGGSTSYADSVKGRFTISRDNAKNTVYLQMNSLKPEDTAVYYCNADLTQYLGPVYEYGYWGQGTQVTVSS	low polyreactivity
QVQLVESGGGLVQAGGSLRLSCAASGRIYYYYTMGWYRQAPGKERELVAGISRSGDRTYYADSVKGRFTISRDIAKNTVYLQMNSLKPEDTAVYYCATRWSSARMDYWGQGTQVTVSS	high polyreactivity
QVQLVESGGGLVQAGGSLRLSCAASGRLFGAYGMGWYRQAPRKERELVAAISNGGRTSYADSVKGRFTISRDNAKNTVYLQMNSLKPEDTAVYYCAAVYWPWYGAYDYWGQGTQVTVSS	high polyreactivity
QVQLVESGGGLVQAGGSLRLSCAASGRLFRHNAMGWYRQAPGKERELVAVISRSTGSTYYADSVKGRFTISRYNAKNTVYLQMNSLKPEDTAVYYCDAKYGSGQRYDYWGQGTQVTVSS	high polyreactivity
QVQLVESGGGLVQAGGSLRLSCAASGRLFRWYAMGGYRQAPGKERELVAAISRSGTSTYYADSVKGRFTISRDNAKNSVYLQMNSLKPEDTAVYYCAADAVIFGMDYWGQGTQVTVSS	low polyreactivity
QVQLVESGGGLVQAGGSLRLSCAASGRMGWYRQAPGKERELVAAITSGDRTNYADSVKGRFTISRDNAKNTVYLQMNSLKREDTAVYYCATEPSWYHGFIDPRGYWGQGTQVTVSS	low polyreactivity
QVQLVESGGGLVQAGGSLRLSCAASGRNFDRNAMGWSRQAPGKERELVARIDPGDDTNYADSVKGRFTISRDNAKNTVYLQMNSLKPEDTAVYYCATDPDYVLYRTAYYEYDYWGQGTQVTVSS	low polyreactivity
QVQLVESGGGLVQAGGSLRLSCAASGRNFFANAMGWYRQAPGKERELVASITRRSGGTYYADSVKGRFTISRDNAKNTVYLQMISLKPEDTAVYYCAARYTFPKDLYYYWGQGTQVTVSS	high polyreactivity
QVQLVESGGGLVQAGGSLRLSCAASGRNFGIYAMGWYRQAPGKERELVARITGGGSTNYADSVKGRFTISRDNAKNTVYLQMNSLKPEDTAVYYCAATVRRIVGNITRYDYWGQGTQVTVSS	low polyreactivity
QVQLVESGGGLVQAGGSLRLSCAASGRNFGRYAMGCYRQAPGKERELVAAITGRGASTYYADSVKGRFTISRDNAKHTVYLQMNSLKPEDTAVYYCNAFRGAQGTDAYDWGQGTQVPVSS	low polyreactivity
QVQLVESGGGLVQAGGSLRLSCAASGRNFGSNTMGWYRQAPGKERELVAAITGDDSTYADSVKGRFTISRDNAKNTVYLQMNSLKPEDTAVYYCAVVWVWDVWFLVYYWGQGTQVTVSS	low polyreactivity
QVQLVESGGGLVQAGGSLRLSCAASGRNFKQYAMGWYRQAPGKERELVAVITRGGGSTYYADSVKGRFTISRDNAKNTVYLQMNSLKPEDTAVYYCAARGTQAPPGRRTGGYNSWGQGTQVTVSS	high polyreactivity
QVQLVESGGGLVQAGGSLRLSCAASGRNFPDNTMGWYRHAPGKERELVATIAWIGASTYYADSEKGRFTISRDNAKNTVYLQMNSLKPEDTAVDYCAGTTSHRWYGFNSKYDFDYWGQGTQVTVSS	low polyreactivity
QVQLVESGGGLVQAGGSLRLSCAASGRNFQWYSMGWSRQAPGKEREFVAAIRYSGGSTYYADSVKGRFTISRDNAKNTVYLQMNSMKPEDTSVYYCNARTGFLARNKRFGYWGQGTQVSVSS	high polyreactivity
